{"source": "the nanobody polyreactivity screen of Harvey et al. (2022)", "data": [{"experiment": "yeast display, Sf9 membrane polyspecificity reagent, FACS + sequencing; frameworks hold sequencing errors", "procedure,_shortened": "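Galactose induction of a Saccharomyces cerevisiae BJ5465 synthetic nanobody display library ran 36–48 hours. The cells were then stained for 1 hour at 4 °C with 10% biotinylated, detergent-solubilized Sf9 membrane reagent, pulled down on streptavidin microbeads and FACS-sorted into low and high (top ~1%) gates on expression and reagent-binding fluorescence. Labels for polyreactivity follow the gate of origin.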", "values": [{"sequence": "QVQLVESGGGLVQAGGSLRLSCAASGSIFLSYAMGWYRQAPGKERELVAAISGRGGSTYYADSVKGRFTISRDNAKNTGYLQMNSLKPEDTAVNYCASEQWGWYWYDYWGQGTQVTVSS", "polyreactivity (PSR sort gate)": "high polyreactivity"}, {"sequence": "QVQLVESGGGLVQAGGSLRLSCAASRFTFVHYAMGWYRQAPGKERELVAAISRSGGSTYCADSVKGRFTISRDNAKNTVYLQMNSLKPEDTAVYYCAASRGSYEVVYWGQGTQVTVSS", "polyreactivity (PSR sort gate)": "high polyreactivity"}, {"sequence": "QDQLVESGGGLVQAGGSLRLSCAPSGFIFSNYAMGWYRHGPGKERELVAAISFTGSNTYYADSVKGRFTISRDYAKNTVYLKMNSLKPEDTAVYFCNAPLEWGVYAAQNWDEGYWGQGSQVTVSS", "polyreactivity (PSR sort gate)": "low polyreactivity"}, {"sequence": "QVQLVESGGGLVQAGGSLRLSCAASGSILVNMGWSRQAPAKERELVAAIRYGGGRTYYADSVKGRFTISRDNAKNTVYLQMNSLKPEDTEVYYCAKKYIWVWAPAKQYGFDSWGQGTQVTVSS", "polyreactivity (PSR sort gate)": "low polyreactivity"}, {"sequence": "QVQIVESGGGLVQAGGSLSLSCAASGRTFAGNAMGWYRQAPGKEMELVASISSSGGRTYYADSVKGRFTISRDNAKNTVYLQMISLKPEDTAVYYCAARGGYVSTWTRFSKYNYWGQGTQVTVSS", "polyreactivity (PSR sort gate)": "high polyreactivity"}, {"sequence": "QVQLVESGGGLVQAGGSLRLSCAASGFTLVLNAMGWYRQAPGKEREVVAAIRRSAGSTYYADSVKGRFTISRDNAKNTVYLQMNSLKPEDTAVYYCAAGFLWAKYAYGHWGQGTQVTVSS", "polyreactivity (PSR sort gate)": "low polyreactivity"}, {"sequence": "QVQLVESGGGLVQAGGSLRLSCAASGSTFVSYDMGWYRQAPGKERELVAAIDWSGGNTDYADSVKGRFTISRDNAKNTVYLQMNSLKPEDNAVYYCAVEKFFRAEYDHWGQGTQVTVSS", "polyreactivity (PSR sort gate)": "low polyreactivity"}, {"sequence": "QVQLVESGGGLVQAGGSLRLSCAASGRIFVLYAMGWYRQAPGKERELVAAISTSGGSTYYADSVKGRFTISRDNAKNTVYLQMNSLKPEDTAVYYCAADRSARFLFIQYYPYGMDYWGQGTQVTVSS", "polyreactivity (PSR sort gate)": "high polyreactivity"}, {"sequence": "QVQLVESGGGLLQAGGSLRLSCAASGFIFGGNAMGWYREAPGKERELVAAIRSGGSTYYADSVKVRFTISRDNAKNTVYLQMISLKPLDTAVDYCAVRLRYAYRARGNYWGQGTQVTVSS", "polyreactivity (PSR sort gate)": "low polyreactivity"}, {"sequence": "QVQLVESGGGLVQAGGSLRLSCAASGRTFVTYAMGWYRQAPGKEREFVAAISRNGGSTYYADSVKGRFTISRDNAKNTVYLQMNSLKPEDTAVYYCAAYAYIFLDWGGYPYYLYEYDYWGQGTQVTVSS", "polyreactivity (PSR sort gate)": "low polyreactivity"}, {"sequence": "QVQLVESGGGLVQAGGSLRLSCAASGRTFTRNVMGWYRQAPGKERELVARISYSGGSTSYADSVKGRFTISRDNAKNTVYLQMNSLKPEDTAVYYCAKYSGKYVSGRYRYYSWGQGTQVTVSS", "polyreactivity (PSR sort gate)": "high polyreactivity"}, {"sequence": "QVQLVESGGGLVQAGGSLRLSCAASGRTFAKYAMGWYRQAPGKEREFVAAITRGDTTNYADSVKGRFTISRDNAKNTVYLQMNSLKPEDTAVYYCNADSLYYDYQTVDVQALDYWGQGTQVTVSS", "polyreactivity (PSR sort gate)": "low polyreactivity"}, {"sequence": "QDQLVESGGGLVQAGGRLRLSSAASVSTFLPNTLGWYSQAHGKERELVADISWSGGSTYYADSVKGRLTISRDNAKNTVYLQMNRLKPEDTADSYCAADIASGYYWYDYWGQGTQVTVTS", "polyreactivity (PSR sort gate)": "low polyreactivity"}, {"sequence": "QVQLVESGGGLVQAGGSLRLSCAASGFTLGSNAMGWYRQAPGKERELVAAISKSGGSTYYADSVKGRFTISRDNAKNTVYLQMNSLKPEDTAVYYCAARYLYQGYRYDYWGQGTQVTVSS", "polyreactivity (PSR sort gate)": "high polyreactivity"}, {"sequence": "QVQLVESGGGLVQAGGILRLSCASSGSIFGYYAMGWYRQAPGKERELVAAIDSGGGSTYYADSVKERFTISRDNAKNTVYFQMNSLKPEDTAVYYCAAVSYSYPSLLYEYWGQGTQVTVSS", "polyreactivity (PSR sort gate)": "low polyreactivity"}, {"sequence": "QVQLVESGGGLVHAGGSLRLSCAASGSIFGFNAMGWYRPAPGKERELVAAISSGSTYYADSVKGRYTISRDNAKTTVYLQMNSLKPEDTAVYYCAATTGYSWYGYWGQGTQVTVSS", "polyreactivity (PSR sort gate)": "low polyreactivity"}, {"sequence": "QVQLVESGGGLVQAGGSLRLSCAASGFIFDPYAMGWYRQAPGKERELVAAISDGGSTNYADSVKGRFTISRDNAKNTVYLQMNSLKPEDTAVYYCAVEYWYVWVTFDYWGQGTQVTVSS", "polyreactivity (PSR sort gate)": "low polyreactivity"}, {"sequence": "QVQLVESGGGLVQAGGSLRLSCAASGLTFSLYAMGWYRQAPGKERELVAAISSSGSTYYADSVKGRFTISRDNAKNTVYLQMNILKPEDTAVYYFAADAPWWIDPIAGNYWGQGTQVTVSS", "polyreactivity (PSR sort gate)": "high polyreactivity"}, {"sequence": "QVQLVESGGGLDQAGGSLRLSCAASGRTFARYDMGWYRQATGKERELVAGINGDGGSTNYADSVKGRFTISRDNSKNTVYLQMNSLKPEDTAVYYCNVDQEDRKLHVSIKQLSDHWGQGTQVTVSS", "polyreactivity (PSR sort gate)": "low polyreactivity"}, {"sequence": "QVQLVESGGGLVQAGGSLRLSCAASGRIFSRYAMGWYRKAPGKERELVAAITQSGTSTYYADSVKGRFTFSRDNAKNTVYLQMNCLKPEDTAVYYCNAYRQYRYDYWGQGTQVTVSS", "polyreactivity (PSR sort gate)": "low polyreactivity"}, {"sequence": "QVQLVESGGGLVQAGGSLRLSCAASGFIFGTNTMGWYRQEPGKERELVAAITSVGSTNYADSVKGRFTISRDNAKNTVYLLMNSLKPEDTAVYYCPATLYYQYGGDYWGQGTQVTVSS", "polyreactivity (PSR sort gate)": "low polyreactivity"}]}]}
